# Assay results as given in article PMC5269641.
# Key:
# [1] = biological target: reaction center-light harvesting 1-PufX (RC-LH1-PufX) complex (Rhodobacter sphaeroides) (UniProt P0C0Y7); assay: atomic force microscopy; tapping mode AFM of intact native chromatophore vesicles immobilised on mica; imaging buffer 300 mM KCl/20 mM MOPS pH 7.4, with and without 10 mM MgCl2; proteins in their native membrane
# [2] = biological target: subunit of the light-harvesting 2 (LH2) complex (Rhodobacter sphaeroides); assay: atomic force microscopy; tapping mode AFM of reconstituted flat LH2 membranes (2D crystals) immobilised on a mica substrate, same approach as for chromatophores
# [3] = biological target: subunit of the light-harvesting 2 (LH2) complex (Rhodobacter sphaeroides); assay: atomic force microscopy; tapping mode AFM of intact native chromatophore vesicles immobilised on mica; imaging buffer 300 mM KCl/20 mM MOPS pH 7.4, with and without 10 mM MgCl2; proteins in their native membrane
# [4] = biological target: subunit of the light-harvesting 2 (LH2) complex (Rhodobacter sphaeroides); assay: atomic force microscopy; tapping mode AFM of reconstituted flat LH2 membranes (2D crystals) immobilised on a mica substrate, same approach as for chromatophores; remark: listed apart in the source
# [5] = biological target: subunit of the light-harvesting 2 (LH2) complex (Rhodobacter sphaeroides); assay: atomic force microscopy; tapping mode AFM of intact native chromatophore vesicles immobilised on mica; imaging buffer 300 mM KCl/20 mM MOPS pH 7.4, with and without 10 mM MgCl2; proteins in their native membrane; remark: listed apart in the source
Substance,stoichiometry N [1],stoichiometry N [2],stoichiometry N [3],stoichiometry N [4],stoichiometry N [5]
reaction center-light harvesting 1-PufX (RC-LH1-PufX) complex (from UniProt P0C0Y7 1-260; P13402 1-82),2,–,–,–,–
subunit of the light-harvesting 2 (LH2) complex,–,9,8.6,8.3,9
